Measured values published in US20230265151A1, “GIP/GLP1 CO-AGONIST COMPOUNDS” (priority 2020, published 2023).
Residue numbers refer to the chain shown, from its start.

T1: human GIP receptor (human, UniProt P48546 22-466)
T1 construct: whole, on cells; also called hGIPR; human glucose-dependent insulinotropic polypeptide receptor
T1 sequence (looked up): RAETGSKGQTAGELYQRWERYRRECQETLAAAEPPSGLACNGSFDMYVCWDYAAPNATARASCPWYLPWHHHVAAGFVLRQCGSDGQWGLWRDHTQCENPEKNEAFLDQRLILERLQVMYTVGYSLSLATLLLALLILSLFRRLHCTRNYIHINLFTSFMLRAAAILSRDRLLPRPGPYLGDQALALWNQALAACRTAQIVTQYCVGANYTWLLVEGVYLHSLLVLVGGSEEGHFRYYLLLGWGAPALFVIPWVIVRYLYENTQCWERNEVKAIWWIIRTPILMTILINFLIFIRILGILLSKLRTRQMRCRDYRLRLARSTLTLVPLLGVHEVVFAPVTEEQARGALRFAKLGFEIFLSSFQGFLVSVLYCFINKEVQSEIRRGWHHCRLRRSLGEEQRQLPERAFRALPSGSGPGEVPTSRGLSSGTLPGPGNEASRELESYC

B1: Y-Aib-EGT-αMeF(2F)-TSD-4Pal-SI-αMeL-LD-Orn-IAQ-Aib-K((2-[2-(2-Amino-ethoxy)-ethoxy]-acetyl)2-(γ-Glu)-CO-(CH2)12-CO2H)FI-(D-Glu)-αMeY-LIK((2-[2-(2-Amino-ethoxy)- … (peptide)
peptide: YXEGTXTSDXSIXLDXIAQXKFIXXLIKGGPSSGAPPPS
modifications: Aib2, αMeF(2F)6, 4Pal10, αMeL13, Orn16, Aib20, K21(Z1), D-Glu24, αMeY25, K28(Z1), C-term NH2; Z1=AEEA2-(γ-Glu)-CO-(CH2)12-CO2H
B2: Y-Aib-EGT-αMeF(2F)-TSD-4Pal-SI-αMeL-LD-Orn-K((2-[2-(2-Amino-ethoxy)-ethoxy]-acetyl)2-(γ-Glu)-CO-(CH2)14-CH3)AQ-Aib-K((2-[2-(2-Amino-ethoxy)-ethoxy]-acetyl)2-(γ- … (peptide)
peptide: B1 peptide with I17K, K28E
modifications: Aib2, αMeF(2F)6, 4Pal10, αMeL13, Orn16, K17(Z1), Aib20, K21(Z1), D-Glu24, αMeY25, C-term NH2; Z1=AEEA2-(γ-Glu)-CO-(CH2)14-CH3
B3: Y-Aib-EGT-αMeF(2F)-TSD-4Pal-SI-αMeL-LD-Orn-IAQ-Aib-EFI-(D-Glu)-αMeY-LIK((2-[2-(2-Amino-ethoxy)-ethoxy]-acetyl)2-(γ-Glu)-CO-(CH2)14-CH3)GGK((2-[2-(2-Amino-ethoxy … (peptide)
peptide: B1 peptide with K21E, P31K
modifications: Aib2, αMeF(2F)6, 4Pal10, αMeL13, Orn16, Aib20, D-Glu24, αMeY25, K28(Z1), K31(Z1), C-term NH2; Z1=AEEA2-(γ-Glu)-CO-(CH2)14-CH3
B4: Y-Aib-EGT-αMeF(2F)-TSD-4Pal-SI-αMeL-LD-Orn-IAQ-Aib-EFI-(D-Glu)-αMeY-LIK((2-[2-(2-Amino-ethoxy)-ethoxy]-acetyl)2-(γ-Glu)-CO-(CH2)12-CO2H)GGK((2-[2-(2-Amino-ethox … (peptide)
peptide: B1 peptide with K21E, P31K
modifications: Aib2, αMeF(2F)6, 4Pal10, αMeL13, Orn16, Aib20, D-Glu24, αMeY25, K28(Z1), K31(Z1), C-term NH2; Z1=AEEA2-(γ-Glu)-CO-(CH2)12-CO2H
B5: Y-Aib-EGT-αMeF(2F)-TSD-4Pal-SI-αMeL-LD-Orn-K((2-[2-(2-Amino-ethoxy)-ethoxy]-acetyl)2-(γ-Glu)-CO-(CH2)14-CH3)AQ-Aib-EFI-(D-Glu)-αMeY-LIEGK((2-[2-(2-Amino-ethoxy) … (peptide)
peptide: B1 peptide with I17K, K21E, K28E, G30K
modifications: Aib2, αMeF(2F)6, 4Pal10, αMeL13, Orn16, K17(Z1), Aib20, D-Glu24, αMeY25, K30(Z1), C-term NH2; Z1=AEEA2-(γ-Glu)-CO-(CH2)14-CH3
B6: Y-Aib-EGT-αMeF(2F)-TSD-4Pal-SI-αMeL-LD-Orn-K((2-[2-(2-Amino-ethoxy)-ethoxy]-acetyl)2-(γ-Glu)-CO-(CH2)10-CH3)AQ-Aib-K((2-[2-(2-Amino-ethoxy)-ethoxy]-acetyl)2-(γ- … (peptide)
peptide: B1 peptide with I17K, K28E
modifications: Aib2, αMeF(2F)6, 4Pal10, αMeL13, Orn16, K17(Z1), Aib20, K21(Z1), D-Glu24, αMeY25, C-term NH2; Z1=AEEA2-(γ-Glu)-CO-(CH2)10-CH3
B7: Y-Aib-EGT-αMeF(2F)-TSDK((2-[2-(2-Amino-ethoxy)-ethoxy]-acetyl)2-(γ-Glu)-CO-(CH2)10-CH3)-Aib-I-αMeL-LD-Orn-K((2-[2-(2-Amino-ethoxy)-ethoxy]-acetyl)2-(γ-Glu)-CO-( … (peptide)
peptide: YXEGTXTSDKXIXLDXKAQXEFIXXLIEGGPSSGAPPPS
modifications: Aib2, αMeF(2F)6, K10(Z1), Aib11, αMeL13, Orn16, K17(Z1), Aib20, D-Glu24, αMeY25, C-term NH2; Z1=AEEA2-(γ-Glu)-CO-(CH2)10-CH3
B8: Y-Aib-EGT-αMeF(2F)-TSD-4Pal-SI-αMeL-LD-Orn-K((2-[2-(2-Amino-ethoxy)-ethoxy]-acetyl)2-CO-(CH2)12-CO2H)AQ-Aib-K((2-[2-(2-Amino-ethoxy)-ethoxy]-acetyl)2-CO-(CH2)12 … (peptide)
peptide: B1 peptide with I17K, K28E
modifications: Aib2, αMeF(2F)6, 4Pal10, αMeL13, Orn16, K17(Z1), Aib20, K21(Z1), D-Glu24, αMeY25, C-term NH2; Z1=AEEA2-CO-(CH2)12-CO2H
B9: Y-Aib-EGT-αMeF(2F)-TSD-4Pal-SI-αMeL-LD-Orn-K((2-[2-(2-Amino-ethoxy)-ethoxy]-acetyl)2-(γ-Glu)-CO-(CH2)14-CH3)AQ-Aib-EFI-(D-Glu)-αMeY-LIK((2-[2-(2-Amino-ethoxy)-e … (peptide)
peptide: B1 peptide with I17K, K21E
modifications: Aib2, αMeF(2F)6, 4Pal10, αMeL13, Orn16, K17(Z1), Aib20, D-Glu24, αMeY25, K28(Z1), C-term NH2; Z1=AEEA2-(γ-Glu)-CO-(CH2)14-CH3
B10: Y-Aib-EGT-αMeF(2F)-TSD-4Pal-SI-αMeL-LD-Orn-K((2-[2-(2-Amino-ethoxy)-ethoxy]-acetyl)2-(γ-Glu)-(4-(4-tert-butylphenyl)butanoyl))AQ-Aib-EFI-(D-Glu)-αMeY-LIEGGK((2- … (peptide)
peptide: B7 peptide with K10X, X11S, P31K
modifications: Aib2, αMeF(2F)6, 4Pal10, αMeL13, Orn16, K17(Z1), Aib20, D-Glu24, αMeY25, K31(Z1), C-term NH2; Z1=AEEA2-(γ-Glu)-(4-(4-tert-butylphenyl)butanoyl)

The binders below were run against T1, human GIP receptor (assay: SPA competition vs [125I]-GIP, hGIPR membranes).
Procedure: (§1) The binding buffer contains 25 mM HEPES, pH 7.4, 2.5 mM CaCl₂, 1 mM MgCl₂, 0.1% (w/v) bacitracin, 0.003% (w/v) TWEEN®-20, and Roche Complete™ Protease Inhibitors without EDTA. […] Plates are sealed and mixed on a plate shaker (setting 6) for 1 minute and read with a PerkinElmer Trilux MicroBeta® scintillation counter after 2.5 to 12 hours of incubation/settling time at room temperature.
(§2) Data are analyzed using four-parameter (curve maximum, curve minimum, IC₅₀, Hill slope) nonlinear regression routines (Genedata Screener, version 12.0.4, Genedata AG, Basal, Switzerland). […] Values for Kᵢ are reported as the geometric mean, with error expressed as the standard error of the mean (SEM) and n is equal to the number of independent replicates (determined in assays performed on different days). Geometric Means are calculated as follows: […]
B1 gave a Ki of 0.0454 nM.
For B2, the Ki was 0.0231 nM.
B3 showed a Ki of 0.0863 nM.
Binder B4 has a Ki of 0.0722 nM.
Work on B5 yielded a Ki of 0.0361 nM.
B6 was tested, and the Ki was 0.0403 nM.
For B7, the Ki was 0.0161 nM.
Binder B8 has a Ki of 0.0627 nM.
With B9 the Ki was 0.0238 nM.

These binders were tested against T2, human glucagon receptor (human, UniProt P47871 26-477) (assay: SPA competition vs [125I]-Gcg, hGcgR membranes).
T2 construct: whole, on cells; also called hGCGR; hGcgR
T2 sequence (P47871 26-477): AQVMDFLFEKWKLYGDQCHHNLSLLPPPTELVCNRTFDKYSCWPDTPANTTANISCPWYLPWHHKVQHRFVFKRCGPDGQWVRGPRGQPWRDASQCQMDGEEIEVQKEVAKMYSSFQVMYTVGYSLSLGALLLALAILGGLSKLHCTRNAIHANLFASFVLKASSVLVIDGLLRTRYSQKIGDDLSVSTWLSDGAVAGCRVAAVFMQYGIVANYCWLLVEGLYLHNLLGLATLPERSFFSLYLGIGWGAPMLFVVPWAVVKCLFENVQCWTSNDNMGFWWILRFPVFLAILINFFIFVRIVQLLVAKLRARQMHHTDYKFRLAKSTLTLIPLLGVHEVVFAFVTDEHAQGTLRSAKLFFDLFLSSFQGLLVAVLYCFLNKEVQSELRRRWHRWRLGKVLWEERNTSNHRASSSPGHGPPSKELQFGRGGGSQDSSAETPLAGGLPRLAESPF
Procedure: as §1, with “4-(2-hydroxyethyl)-1-piperazineethanesulfonic acid (HEPES),” for “HEPES,”, “MgCh,” for “MgCl₂,”, “bacitracin (Research Products),” for “bacitracin,”, “Polyoxyethylenesorbitan monolaurate (TWEEN®-20),” for “TWEEN®-20,”, “after” for “after 2.5 to”
Data are analyzed using four-parameter (curve maximum, curve minimum, IC₅₀, Hill slope) nonlinear regression routines (Genedata Screener, version 12.0.4, Genedata AG, Basal, Switzerland). […] Values for Kᵢ are reported as the geometric mean, with error expressed as the standard error of the mean (SEM) and n is equal to the number of independent replicates (determined in assays performed on different days).
In the case of B10, the Ki is reported as 637 nM.
Binder B1 has a Ki of 53.9 nM.
Work on B2 yielded a Ki of 0.293 nM.
In the case of B3, the Ki is reported as 3.82 nM.
With B4 the Ki was 139 nM.
B5 gave a Ki of 0.646 nM.
Binder B6 has a Ki of 8.29 nM.
B7 was tested, and the Ki was 132 nM.
B8 gave a Ki of 625 nM.
Binder B9 has a Ki of 1.18 nM.

These binders were tested against T3, human GLP-1 receptor (human, UniProt P43220 24-463) (assay: SPA competition vs [125I]-GLP-1, hGLP-1R membranes).
T3 construct: whole, on cells; also called hGLP-1R; human glucagon-like peptide-1 receptor
Procedure: The binding buffer contains 25 mM HEPES, pH 7.4, 2.5 mM CaCl₂, 1 mM MgCl₂, 0.1% (w/v) bacitracin, 0.003% (w/v) TWEEN®-20, and Roche Complete™ Protease Inhibitors without EDTA.
as §2
B1 was tested, and the Ki was 3.38 nM.
For B2, the Ki was 0.246 nM.
With B3 the Ki was 0.867 nM.
For B4, the Ki was 1.96 nM.
B5 gave a Ki of 0.52 nM.
B6 showed a Ki of 0.25 nM.
B7 was tested, and the Ki was 0.289 nM.
With B8 the Ki was 0.881 nM.
B9 gave a Ki of 0.251 nM.
